{"source": "patent US20020090382A1", "about": "“Antiviral compounds and methods” (University of Pittsburgh of the Commonwealth System of …, priority 2000, published 2002)", "molecules": {"B1": {"name": "L25D (protein)", "chain": "KYALIDASLKMADPNRFRGKDLPVDDQLTDPPGVRRVYHIQAGLPDPFQPPSLPITVYYAVLERACRSVLLNAPSEAPQIVRGASEDVRKQPYNLTIAWFRMGGNCAIPITVMEYTECSYNKSLGACPIRTQPRWNYYDSFSAVSEDNLGFLMHAPAFETAGTYLRLVKINDWTEITQFILEHRAKGSCKYALPLRIPPSACLSPQAYQQGVTVDSIGMLPRFIPENQRTVAVYSLKIAGWHGPKAPYTSTLLPPELSETPNATQPELAPEDPEDSALLEDPVGTVAPQIPPNWHIPSIQDAATPYHPPATPNNMGLIAGAVGGSLLAALVICGIVYWMHRRTRKAPKRIRLPHIREDDQPSSHQPLFY"}, "B2": {"name": "L25T (protein)", "chain": "KYALIDASLKMADPNRFRGKDLPVTDQLTDPPGVRRVYHIQAGLPDPFQPPSLPITVYYAVLERACRSVLLNAPSEAPQIVRGASEDVRKQPYNLTIAWFRMGGNCAIPITVMEYTECSYNKSLGACPIRTQPRWNYYDSFSAVSEDNLGFLMHAPAFETAGTYLRLVKINDWTEITQFILEHRAKGSCKYALPLRIPPSACLSPQAYQQGVTVDSIGMLPRFIPENQRTVAVYSLKIAGWHGPKAPYTSTLLPPELSETPNATQPELAPEDPEDSALLEDPVGTVAPQIPPNWHIPSIQDAATPYHPPATPNNMGLIAGAVGGSLLAALVICGIVYWMHRRTRKAPKRIRLPHIREDDQPSSHQPLFY"}, "B3": {"name": "L25H (protein)", "chain": "KYALIDASLKMADPNRFRGKDLPVHDQLTDPPGVRRVYHIQAGLPDPFQPPSLPITVYYAVLERACRSVLLNAPSEAPQIVRGASEDVRKQPYNLTIAWFRMGGNCAIPITVMEYTECSYNKSLGACPIRTQPRWNYYDSFSAVSEDNLGFLMHAPAFETAGTYLRLVKINDWTEITQFILEHRAKGSCKYALPLRIPPSACLSPQAYQQGVTVDSIGMLPRFIPENQRTVAVYSLKIAGWHGPKAPYTSTLLPPELSETPNATQPELAPEDPEDSALLEDPVGTVAPQIPPNWHIPSIQDAATPYHPPATPNNMGLIAGAVGGSLLAALVICGIVYWMHRRTRKAPKRIRLPHIREDDQPSSHQPLFY"}, "B4": {"name": "D26H (protein)", "chain": "KYALIDASLKMADPNRFRGKDLPVLHQLTDPPGVRRVYHIQAGLPDPFQPPSLPITVYYAVLERACRSVLLNAPSEAPQIVRGASEDVRKQPYNLTIAWFRMGGNCAIPITVMEYTECSYNKSLGACPIRTQPRWNYYDSFSAVSEDNLGFLMHAPAFETAGTYLRLVKINDWTEITQFILEHRAKGSCKYALPLRIPPSACLSPQAYQQGVTVDSIGMLPRFIPENQRTVAVYSLKIAGWHGPKAPYTSTLLPPELSETPNATQPELAPEDPEDSALLEDPVGTVAPQIPPNWHIPSIQDAATPYHPPATPNNMGLIAGAVGGSLLAALVICGIVYWMHRRTRKAPKRIRLPHIREDDQPSSHQPLFY"}}, "key": {"VD60 cells": {"system": "VD60 cells", "assay": "Transient complementation of gD-null virus KΔUS3-8Z, titers on VD60 cells", "assay_type": "cell-based", "settings": "relative to wild-type gD (100%) and gD− (0%); KΔUS3-8Z virus", "from_the_text": "(§1) In a first transient complementation assay, several cell lines were employed. VD60 cells express wild-type gD endogenously which complements the deleted gD gene of KΔUS3-8Z for plaque formation, but only if the virus can initially infect using the gD product of the transfected gene. Thus, plaque formation on VD60 cells indicates complementation of gD's attachment/entry function by the transfected gene. CHO cells lack gD receptors and are resistant to HSV infection, but CHO cells transduced with HveA or HveC expression plasmids (CHO-HveA and CHO-HveC cells, respectively) are susceptible. KΔUS3-8Z misses the complete gD gene (US6) due to a large deletion extending from US3 to US8 and therefore offers no target for homologous recombination with transfected gD genes or the stable gD gene of VD60 cells. […] Since the progeny virus lacks gD, plaques will not form on these cells and virus entry was therefore determined by measurement of lacZ reporter gene expression.\n(§2) To conduct the assay, Vero cells were transfected with LIPOFECTAMINE-PLUS (GIBCO) for 4 h at 37° C., the cell monolayers washed and incubated with DMEM/10% fetal bovine serum (FBS) for 16 h at 37° C., and the transfected cells infected with KΔUS3-8Z at an MOI of 3 for 2 h at 37° C. After removal of the medium and inactivation of residual extracellular virus by incubation of the monolayer with 0.1M glycine (pH 3.0) for 1 min at room temperature, fresh medium was added and the cells incubated at 37° C. for 48 hours. The medium was subsequently removed and temporarily stored on ice while the cells were being lysed by freeze-thawing and sonication. Cell debris was pelleted by low-speed centrifugation and the supernatant combined with the previously stored medium. Virus titers were determined on gD-complementing VD60 cells. Complementing activity was determined by infection of CHO-HveA, CHO-HveC, and control CHO-K cells. Infected cells were lysed in a buffer containing 1% NP-40, 1 mM MgCl2, 50 mM β-mercaptoethanol, and 4 mg/ml β-galatosidase substrate O-nitrophenyl β-D-galactopyranoside (ONPG, Sigma) in a total volume of 50 μl. The enzyme-substrate reaction was carried out at 37° C. and stopped by addition of an equal volume of 1M Na2CO3 after color development. β-galactosidase activity was measured by reading the absorbance at 420 nm. One hundred percent complementation was defined as the difference between the A420 values obtained for the wild-type (pSP72-gD) and negative control (pgD^−) gD plasmids. Relative complementation efficiencies were calculated as 100%×[A420(mutant)−A420(gD^−)]/[A420(wild type)−A420(gD^−)]."}, "CHO-HveC cells": {"system": "CHO-HveC cells", "assay": "Transient complementation of gD-null virus KΔUS3-8Z, entry into CHO-HveC cells (lacZ)", "assay_type": "cell-based, Chinese hamster", "settings": "relative to wild-type gD (100%) and gD− (0%); KΔUS3-8Z virus, A420 β-galactosidase", "from_the_text": "as §1, §2"}, "CHO-HveA cells": {"system": "CHO-HveA cells", "assay": "Transient complementation of gD-null virus KΔUS3-8Z, entry into CHO-HveA cells (lacZ)", "assay_type": "cell-based, Chinese hamster", "settings": "relative to wild-type gD (100%) and gD− (0%); KΔUS3-8Z virus, A420 β-galactosidase", "from_the_text": "as §1, §2"}}, "data": [{"molecule": "B1", "values": [{"measurement": "% Complementation VD60", "setting": "VD60 cells", "result": 10, "unit": "%"}, {"measurement": "% Complementation CHO-HveC", "setting": "CHO-HveC cells", "result": 14, "unit": "%"}, {"measurement": "% Complementation CHO-HveA", "setting": "CHO-HveA cells", "result": 0, "unit": "%"}]}, {"molecule": "B2", "values": [{"measurement": "% Complementation VD60", "setting": "VD60 cells", "result": 14, "unit": "%"}, {"measurement": "% Complementation CHO-HveC", "setting": "CHO-HveC cells", "result": 3, "unit": "%"}, {"measurement": "% Complementation CHO-HveA", "setting": "CHO-HveA cells", "result": 0, "unit": "%"}]}, {"molecule": "B3", "values": [{"measurement": "% Complementation VD60", "setting": "VD60 cells", "result": 14, "unit": "%"}, {"measurement": "% Complementation CHO-HveC", "setting": "CHO-HveC cells", "result": 12, "unit": "%"}, {"measurement": "% Complementation CHO-HveA", "setting": "CHO-HveA cells", "result": 0, "unit": "%"}]}, {"molecule": "B4", "values": [{"measurement": "% Complementation VD60", "setting": "VD60 cells", "result": 17, "unit": "%"}, {"measurement": "% Complementation CHO-HveC", "setting": "CHO-HveC cells", "result": 11, "unit": "%"}, {"measurement": "% Complementation CHO-HveA", "setting": "CHO-HveA cells", "result": 10, "unit": "%"}]}]}
